Two molecules from article PMC2175353 can be followed below.

Where two headings read alike, the source gives them in different places.

The target of data set [1] is T1, v-Myb AMV (bacterial, pVM2028) (avian myeloblastosis virus (AMV), UniProt P01104 1-382). In words: EMSA. A general note: A gel shift assay detects complexes by their altered migration in electrophoresis.
For data set [2], the target named is T1, v-Myb AMV (bacterial, pVM2028). In words: EMSA. The source holds these as a separate data set.

T1 sequence (P01104 whole entry): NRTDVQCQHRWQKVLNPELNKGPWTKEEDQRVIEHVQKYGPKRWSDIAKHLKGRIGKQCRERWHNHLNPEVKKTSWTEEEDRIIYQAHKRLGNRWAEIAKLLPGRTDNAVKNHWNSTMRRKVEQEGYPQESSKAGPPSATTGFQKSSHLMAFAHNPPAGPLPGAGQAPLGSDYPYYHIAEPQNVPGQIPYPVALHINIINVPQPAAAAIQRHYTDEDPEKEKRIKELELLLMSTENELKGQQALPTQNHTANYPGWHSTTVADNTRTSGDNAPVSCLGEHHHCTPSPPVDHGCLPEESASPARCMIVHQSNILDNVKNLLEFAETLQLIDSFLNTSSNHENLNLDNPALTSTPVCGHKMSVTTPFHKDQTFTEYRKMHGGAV

B1: mimA (mim-1 promoter Myb site A) (dsDNA)
DNA 1: GCTCTAAAAAACCGTTATAATGTACAGATATCTT
DNA 2: AAGATATCTGTACATTATAACGGTTTTTTAGAGC
Regarding B1, the binding result in data set [1] is “binds”.

B2: MBS3wt (Myb site 3, lysozyme -2.7 kb enhancer) (dsDNA)
DNA 1: GGCTGGGAATATTTCTGTTTGACCACCATGGAG
DNA 2: CTCCATGGTGGTCAAACAGAAATATTCCCAGCC
For the molecule B2, the binding result in data set [2] is listed as “no binding”.
